According to article PMC8965161, “Suppression of ATG4B by copper inhibits autophagy and involves in Mallory body formation” (Redox Biology, 2022):
One block for each molecule: values may come before it.

Key:
ATG4B^C0-GFP = ATG4B^C0-GFP (UniProt Q9Y4P1); experiment: differential detergent fractionation and western blot under non-reduced condition, oligomer band quantified (self-oligomer formation in cells); parameters: reference not given here; settings: HEK-293T cells, read off a plot
[1] = target: the molecule itself; experiment: non-reduced SDS-PAGE with Coomassie staining; ATG4B protein (4 ug) treated with designed concentrations of copper ions at 4 C for 30 min, stopped with 10 mM NEM; non-reduced condition

response (ATG4B^C0-GFP; Insoluble fraction, 1 mM copper ions (CuCl2) for 6 h): 0.55 | response (ATG4B^C0-GFP; Insoluble fraction, no CuCl2): 0.39 | response (ATG4B^C0-GFP; Soluble fraction, 1 mM copper ions (CuCl2) for 6 h): 0.15 | response (ATG4B^C0-GFP; Soluble fraction, no CuCl2): 0.068
Molecule: ATG4B-GFP (from UniProt Q9Y4P1) C0 (all 14 cysteines to serines)

B1: recombinant ATG4B protein without His-Tag (enzyme, human, UniProt Q9Y4P1 1-393, looked up)
chain: MDAATLTYDTLRFAEFEDFPETSEPVWILGRKYSIFTEKDEILSDVASRLWFTYRKNFPAIGGTGPTSDTGWGCMLRCGQMIFAQALVCRHLGRDWRWTQRKRQPDSYFSVLNAFIDRKDSYYSIHQIAQMGVGEGKSIGQWYGPNTVAQVLKKLAVFDTWSSLAVHIAMDNTVVMEEIRRLCRTSVPCAGATAFPADSDRHCNGFPAGAEVTNRPSPWRPLVLLIPLRLGLTDINEAYVETLKHCFMMPQSLGVIGGKPNSAHYFIGYVGEELIYLDPHTTQPAVEPTDGCFIPDESFHCQHPPCRMSIAELDPSIAVGFFCKTEDDFNDWCQQVKKLSLLGGALPMFELVELQPSHLACPDVLNLSLDSSDVERLERFFDSEDEDFEILSL
notes: ATG4B, cysteine protease, human; source: recombinant, purified, without His-Tag
binding result [1]: binds
